# Results taken from publication PMC10079658.
# pKd: −log10 of the molar value.
# Experiments:
# [1] = molecular target: His-Hsp70 (Heat Shock Protein 70) (UniProt P0DMV8); test: BLI; details: 25 mM HEPES, 5 mM MgCl2, 300 mM KCl, pH 7.4 (BLI) or 7.5 (SELEX), 24 °C, plate assay washes with 1% BSA
# [2] = molecular target: His-Hsp70 (Heat Shock Protein 70) (UniProt P0DMV8); test: fluorescence plate binding assay; details: 25 mM HEPES, 5 mM MgCl2, 300 mM KCl, pH 7.4 (BLI) or 7.5 (SELEX), 24 °C, plate assay washes with 1% BSA
# [3] = test system: His-CPA (C-terminus of RNA polymerase subunit PA) (Influenza A); test: BLI; details: all A are 7-phenylbutyl-7-deaza-dA (A*); 25 mM HEPES, 5 mM MgCl2, 300 mM KCl, pH 7.4 (BLI) or 7.5 (SELEX), 24 °C; plate assay washes with 1% BSA, 0.05% Tween …; aptamers folded 95 °C 5 min then cooled
# [4] = test system: His-NPA (N-terminus of RNA polymerase subunit PA) (Influenza A); test: BLI; details: all A are 7-phenylbutyl-7-deaza-dA (A*); 25 mM HEPES, 5 mM MgCl2, 300 mM KCl, pH 7.4 (BLI) or 7.5 (SELEX), 24 °C; plate assay washes with 1% BSA, 0.05% Tween …; aptamers folded 95 °C 5 min then cooled
# [5] = test system: His-SUMO; test: BLI; details: all A are 7-phenylbutyl-7-deaza-dA (A*); 25 mM HEPES, 5 mM MgCl2, 300 mM KCl, pH 7.4 (BLI) or 7.5 (SELEX), 24 °C; plate assay washes with 1% BSA, 0.05% Tween …; aptamers folded 95 °C 5 min then cooled
# [6] = molecular target: SBP-Hsp70 (UniProt P0DMV8); test: BLI; details: all A are 7-phenylbutyl-7-deaza-dA (A*); 25 mM HEPES, 5 mM MgCl2, 300 mM KCl, pH 7.4 (BLI) or 7.5 (SELEX), 24 °C; plate assay washes with 1% BSA, 0.05% Tween …; aptamers folded 95 °C 5 min then cooled
# [7] = test system: His-CPA (C-terminus of RNA polymerase subunit PA) (Influenza A); test: fluorescence plate binding assay; details: all A are 7-phenylbutyl-7-deaza-dA (A*); 25 mM HEPES, 5 mM MgCl2, 300 mM KCl, pH 7.4 (BLI) or 7.5 (SELEX), 24 °C; plate assay washes with 1% BSA, 0.05% Tween …; aptamers folded 95 °C 5 min then cooled
# [8] = test system: His-NPA (N-terminus of RNA polymerase subunit PA) (Influenza A); test: fluorescence plate binding assay; details: all A are 7-phenylbutyl-7-deaza-dA (A*); 25 mM HEPES, 5 mM MgCl2, 300 mM KCl, pH 7.4 (BLI) or 7.5 (SELEX), 24 °C; plate assay washes with 1% BSA, 0.05% Tween …; aptamers folded 95 °C 5 min then cooled
# [9] = test system: His-SUMO; test: fluorescence plate binding assay; details: all A are 7-phenylbutyl-7-deaza-dA (A*); 25 mM HEPES, 5 mM MgCl2, 300 mM KCl, pH 7.4 (BLI) or 7.5 (SELEX), 24 °C; plate assay washes with 1% BSA, 0.05% Tween …; aptamers folded 95 °C 5 min then cooled
# [10] = all A after nt 19 are 7-phenylbutyl-7-deaza-dA (A*), 0.05% Tween 20, aptamers folded 95 °C 5 min then …
# [11] = none (natural dA), 0.05% Tween 20, aptamers folded 95 °C 5 min then …
# [12] = A after nt 19 are 7-phenylbutyl-7-deaza-dA (A*), 0.05% Tween 20, aptamers folded 95 °C 5 min then …
# [13] = all A are 7-phenylbutyl-7-deaza-dA (A*), 0.05% Tween …, aptamers folded 95 °C 5 min then cooled
sequence,measurement,setting,value
GCAGCAGAGATAGACGCTATTCTCTAGACCTTCTAATTTACATACTCCAATGGCATAGCTGGCAC [HSc-2],pKd,"[1]; all A after nt 19 plus those marked A* are 7-phenylbutyl-7-deaza-dA, except none in 5' primer region (nt 1-19), printed A26 and later marked A*, 0.05% Tween 20, aptamers folded 95 °C 5 min then …",7.18
same,pKd,"[2]; error printed as 6 in Table 6, all A after nt 19 plus those marked A* are 7-phenylbutyl-7-deaza-dA, except none in 5' primer region (nt 1-19), printed A26 and later marked A*, 0.05% Tween 20, aptamers folded 95 °C 5 min then …",6.61
GCAGCAGAGATAGACGCTAAGACCTCATAGTCCTTCTAATTATACTCCAATGGCATAGCTGGCAC [HSc-9],pKd,[1]; [10],7.44
same,pKd,[2]; [10],7.54
GCAGCAGAGATAGACGCTAAGACCTCATAGTCCTTCTAATTATACTCCAATGGCATAGCTGGCAC [HSNat-9],pKd,[1]; [11],5.33
same,pKd,[2]; [11],< 5.00
GCAGCAGAGATAGACGCTATTCTCTAGACCTTCTAATTTACATACTCCAATGGCATAGCTGGCAC [HSNat-2],pKd,[1]; [11],< 5.30
same,pKd,[2]; [11],< 5.00
GCAGCAGAGATAGACGCTATCGATGACTATAATTCCCATCTATCATCCAATGGCATAGCTGGCAC [Scr1],pKd,[1]; [12],6.25
same,pKd,[2]; [12],6.27
GCAGCAGAGATAGACGCTACCCCTTAATAAAAACATACGGTCCATTCCCGTCGTACGATTGATTG [Scr3],pKd,[1]; [12],6.15
same,pKd,[2]; [12],6.11
GCAGCAGAGATAGACGCTACCCCTTAATAAAAACATACGGTCCATTCCCGTCGTACGATTGATTG [Scr2],pKd,[1]; [12],6.21
same,pKd,[2]; [12],6.16
AGACCTCATAGTCCTTCTAATTATACTCCAATGGCATAGCTGGCAC [HSc-9.1],pKd,[3],5.91
same,pKd,[1]; [13],7.54
same,pKd,[4],5.81
same,pKd,[5],5.88
same,pKd,[6],7.55
same,pKd,[7],6.00
same,pKd,[2]; [13],7.83
same,pKd,[8],5.90
same,pKd,[9],5.95
